Experimental data: US20160185853A1 (UNIVERSITY OF SOUTHERN CALIFORNIA, published 2016)

Experiments:
[1] = molecular target: T1, GRP78-His (human GRP78 amino acids 1-650, without KDEL motif, hexahistidine tag on C-terminus) (human, UniProt P11021 19-650); test: competition ELISA on GRP78-His; dilution series of unlabelled antibody against a fixed concentration of biotinylated murine MAb159 [panel A]
T1 construct: also called GRP78-His polypeptide

[2] = molecular target: T2, Flag tagged GRP78 (without KDEL) (human, UniProt P11021 19-650, surface biotinylated with Sulfo-NHS-LC-Biotin); test: surface biotinylation, avidin purification, anti-Flag immunoprecipitation, Western blot (293T cells)
T2 construct: also called surface GRP78 (overexpressed); not shown: Flag tag

human GRP78 = molecular target: T3, human GRP78 (human, UniProt P11021 19-654); test: Scatchard assay
T3 construct: also called BiP/HSPA5; antigen

HSP70 = molecular target: T4, HSP70 (UniProt P0DMV8 2-641); test: Western blot of MCF7 whole cell lysates
T4 construct: also called GRP78's closest paralogue

mouse GRP78 = molecular target: T5, mouse GRP78 (mouse, UniProt P20029 20-655); test: immunoblot of MEF lysates; band absent after deletion of Grp78
T5 construct: Denatured protein on an immunoblot; also called GRP78 protein band in mouse embryo fibroblast (MEF) lysates

B1: humanized MAb159 (antibody, V domains shown)
VH: QAQLVQSGAEVKKPGASVKVSCKASGYTFTSYWMHWVRQAPGQGLEWIGEINPGNGRTNYNEKFKRRVTITVDKSASTAYMELSSLRSEDTAVYYCATLYYYDGTYDYWGQGTTVTVSS
VL: DIVMTQSPSFLSASVGDRVTITCKASQNVGTDVAWYQQKPGKAPKALIYWASNRFTGVPDRFTGSGSGTDFTLTISSLQSEDVADYFCQQYSSSPWTFGGGTKVEIK
notes: It carries a human Fc (detected with a human Fc specific antibody)
binding result [1]: binds

B2: ERK1 (enzyme, UniProt P27361 2-379, looked up)
chain: AAAAAQGGGGGEPRRTEGVGPGVPGEVEMVKGQPFDVGPRYTQLQYIGEGAYGMVSSAYDHVRKTRVAIKKISPFEHQTYCQRTLREIQILLRFRHENVIGIRDILRASTLEAMRDVYIVQDLMETDLYKLLKSQQLSNDHICYFLYQILRGLKYIHSANVLHRDLKPSNLLINTTCDLKICDFGLARIADPEHDHTGFLTEYVATRWYRAPEIMLNSKGYTKSIDIWSVGCILAEMLSNRPIFPGKHYLDQLNHILGILGSPSQEDLNCIINMKARNYLQSLPSKTKVAWAKLFPKSDSKALDLLDRMLTFNPNKRITVEEALAHPYLEQYYDPTDEPVAEEPFTFAMELDDLPKERLKELIFQETARFQPGVLEAP
notes: Printed only as ERK1/2; also called ERK1/2; Erk1/2
binding result [2]: no binding

B3: MAb159 (murine monoclonal antibody) (antibody, V domains shown)
VH: QAQLQQPGAELVKPGASVRLSCKASGYTFTSYWMHWVKQRPGQGLEWIGEINPGNGRTNYNEKFKRKATLTVDKSSSTAYMQLNSLTSEDSAVYYCATLYYYDGTYDYWGQGTTLTVSS
VL: DIVMTQSHKFMSTSVGDRVSVTCKASQNVGTDVAWYQQKPGQSPKALIYWASNRFTGVPDRFTGSGSGTDFTLTINNVQSEDLVDYFCQQYSSSPWTFGGGTKLEIK
notes: Whole murine monoclonal antibody from a hybridoma, purified on protein G; also called murine MAb159; parental murine antibody
Kd (human GRP78): 1.7 nM
binding result (HSP70): no binding (tested: 1 µg/ml primary antibody)
binding result (mouse GRP78): binds
